These results are taken from publication doi:10.1101/465575 (bioRxiv, 2018).

Data set [1] concerns the target T1, Rv0081-S/Q-A S48A;S49A;S52A;Q53A (Mycobacterium tuberculosis) (UniProt P9WMI7).
T1 sequence: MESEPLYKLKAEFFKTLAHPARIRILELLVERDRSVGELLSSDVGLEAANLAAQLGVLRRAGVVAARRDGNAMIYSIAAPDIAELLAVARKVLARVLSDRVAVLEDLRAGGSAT
In words: SPR. In general terms: In SPR one partner is held on a chip, and binding of the other changes the refractive index at the surface.

The data set “SEC-MALS” deals with the molecule itself. Kind of data set: SEC-MALS. On the technique in general: Size exclusion chromatography separates by hydrodynamic size, large species first.

For orientation: Kd means a measure of binding affinity in units of concentration. Lower therefore signals a tighter complex. “ATCCGCACTATCTGATAAATTCTTCAACTCGTC (double strand) [ds-Wt]”: in data set [1], the Kd was found to be 19.6 µM.

B1: Rv0081 transcription factor of Mycobacterium tuberculosis (natural protein)
chain: MESEPLYKLKAEFFKTLAHPARIRILELLVERDRSVGELLSSDVGLESSNLSQQLGVLRRAGVVAARRDGNAMIYSIAAPDIAELLAVARKVLARVLSDRVAVLEDLRAGGSAT
The stoichiometry N is the number of molecules, sites or subunits per partner or assembly. In the case of B1, the “stoichiometry N” value in the data set “SEC-MALS” amounted to 2.
